Assay results as given in PMC8571082, “Structural and thermodynamical insights into the binding and inhibition of FIH-1 by the N-terminal disordered region of Mint3” (The Journal of Biological Chemistry, 2021).
Positions count from the first letter of the chain named.

Tests used:
Settings in all cases: both partners purified
[1] = biological target: T1, factor inhibiting HIF-1 (FIH-1), full-length (human, UniProt Q9NWT6 1-349); experiment: ITC; MicroCal iTC200, 25 °C; 150 μM Mint3 in the syringe, 30 μM FIH-1 in the cell, 25 injections of 1.5 μl; 35 mM Na-phosphate pH 7.5, 300 mM NaCl, 500 μM αKG; single set of sites model; for Figure 4 also in the absence of αKG and/or with EDTA
T1 construct: Dimer by SEC and SEC-MALS; The TEV site ENLYFQ lay between the His6 tag and FIH-1; also called FIH-1 WT; source: E. coli BL21 (DE3), purified (Ni-NTA, TEV cleavage, SEC); not shown: His6, N-terminal, cleaved

[2] = biological target: T2, factor inhibiting HIF-1 (FIH-1) (human, UniProt Q9NWT6 1-349); experiment: ITC; Mint3 construct in the syringe (150 μM, 25 injections of 1.5 μl) titrated into 30 μM FIH-1 in the cell; 25 °C; 35 mM Na-phosphate pH 7.5, 300 mM NaCl, 500 μM αKG; single set of sites model
T2 construct: N-terminal His6 tag and TEV site (ENLYFQ) cleaved with TEV protease; Dimer by SEC and SEC-MALS (about 80 kDa); also called FIH-1 WT; source: E. coli BL21 (DE3), purified (Ni-NTA, TEV cleavage, SEC); not shown: His6, N-terminal, cleaved

FIH-1 N171A = biological target: T3, FIH-1 N171A (human, UniProt Q9NWT6 1-349, Asn171 replaced with Ala); experiment: ITC; MicroCal iTC200, 25 °C; 150 μM Mint3 in the syringe, 30 μM FIH-1 in the cell, 25 injections of 1.5 μl; 35 mM Na-phosphate pH 7.5, 300 mM NaCl, 500 μM αKG; single set of sites model; for Figure 4 also in the absence of αKG and/or with EDTA
T3 construct: also called Asn171 replaced with Ala; source: E. coli BL21 (DE3), purified (mutants prepared as FIH-1); not shown: His6, N-terminal, cleaved

FIH-1 E250A = biological target: T4, FIH-1 E250A (human, UniProt Q9NWT6 1-349, Glu250 replaced with Ala); experiment: as above
T4 construct: also called Glu250 replaced with Ala (negative control); source: E. coli BL21 (DE3), purified (mutants prepared as FIH-1); not shown: His6, N-terminal, cleaved

FIH-1 D248A = biological target: T5, FIH-1 D248A (human, UniProt Q9NWT6 1-349, Asp248 replaced with Ala); experiment: as above
T5 construct: also called Asp248 replaced with Ala (negative control); source: E. coli BL21 (DE3), purified (mutants prepared as FIH-1); not shown: His6, N-terminal, cleaved

FIH-1 E29A = biological target: T6, FIH-1 E29A (human, UniProt Q9NWT6 1-349, Glu29 replaced with Ala); experiment: as above
T6 construct: also called Glu29 replaced with Ala (negative control); source: E. coli BL21 (DE3), purified (mutants prepared as FIH-1); not shown: His6, N-terminal, cleaved

FIH-1 E79A = biological target: T7, FIH-1 E79A (human, UniProt Q9NWT6 1-349, Glu79 replaced with Ala); experiment: as above
T7 construct: also called Glu79 replaced with Ala; source: E. coli BL21 (DE3), purified (mutants prepared as FIH-1); not shown: His6, N-terminal, cleaved

FIH-1 Y71A = biological target: T8, FIH-1 Y71A (human, UniProt Q9NWT6 1-349, Tyr71 replaced with Ala); experiment: as above
T8 construct: also called Tyr71 replaced with Ala; source: E. coli BL21 (DE3), purified (mutants prepared as FIH-1); not shown: His6, N-terminal, cleaved

FIH-1 K75A = biological target: T9, FIH-1 K75A (human, UniProt Q9NWT6 1-349, Lys75 replaced with Ala); experiment: as above
T9 construct: also called Lys75 replaced with Ala; source: E. coli BL21 (DE3), purified (mutants prepared as FIH-1); not shown: His6, N-terminal, cleaved
T9 sequence (Q9NWT6 whole entry K75A): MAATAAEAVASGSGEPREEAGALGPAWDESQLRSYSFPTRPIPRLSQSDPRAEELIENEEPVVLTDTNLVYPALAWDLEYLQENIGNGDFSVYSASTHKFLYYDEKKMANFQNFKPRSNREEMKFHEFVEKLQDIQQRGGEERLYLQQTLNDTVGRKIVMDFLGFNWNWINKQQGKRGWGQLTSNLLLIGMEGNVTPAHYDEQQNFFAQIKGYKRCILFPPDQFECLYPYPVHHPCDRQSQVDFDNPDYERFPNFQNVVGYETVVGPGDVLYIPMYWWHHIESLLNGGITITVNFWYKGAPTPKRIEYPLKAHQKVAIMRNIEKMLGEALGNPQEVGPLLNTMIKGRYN

T1 sequence (Q9NWT6 whole entry): as the sequence (Q9NWT6 whole entry K75A) above, with A75K counted along it
T2 sequence (Q9NWT6 whole entry): as the sequence (Q9NWT6 whole entry K75A) above, with A75K counted along it
T5 sequence (Q9NWT6 whole entry D248A): as the sequence (Q9NWT6 whole entry K75A) above, with A75K, D248A counted along it
T7 sequence (Q9NWT6 whole entry E79A): as the sequence (Q9NWT6 whole entry K75A) above, with A75K, E79A counted along it
T6 sequence (Q9NWT6 whole entry E29A): as the sequence (Q9NWT6 whole entry K75A) above, with E29A, A75K counted along it
T8 sequence (Q9NWT6 whole entry Y71A): as the sequence (Q9NWT6 whole entry K75A) above, with Y71A, A75K counted along it
T3 sequence (Q9NWT6 whole entry N171A): as the sequence (Q9NWT6 whole entry K75A) above, with A75K, N171A counted along it
T4 sequence (Q9NWT6 whole entry E250A): as the sequence (Q9NWT6 whole entry K75A) above, with A75K, E250A counted along it

B1: short peptide of Mint3 (93–117) (peptide, UniProt O96018 93-117, looked up)
chain: SQEIADAHGLLSAEAGRDDLLGLLH
notes: The methods say only that mutants/fragments of Mint3 were prepared as Mint3NT (E. coli, C-terminal His6); the results call this a peptide and speak of synthesis for the peptide 78-88, so it may be synthetic
- Kd [1]: 3000 ± 600 nM
- stoichiometry N [1]: ~0.5

B2: Mint3NT, N-terminal fragment (1-214) of Mint3 (domain or fragment, human, UniProt O96018 1-214, looked up)
chain: MDFPTISRSPSGPPAMDLEGPRDILVPSEDLTPDSQWDPMPGGPGSLSRMELDESSLQELVQQFEALPGDLVGPSPGGAPCPLHIATGHGLASQEIADAHGLLSAEAGRDDLLGLLHCEECPPSQTGPEEPLEPAPRLLQPPEDPDEDSDSPEWVEGASAEQEGSRSSSSSPEPWLETVPLVTPEEPPAGAQSPETLASYPAPQEVPGPCDHED
notes: human Mint3 (X11gamma/APBA3), residues 1-214; also called 1-214 (NT); Mint3(1-214); source: E. coli BL21 (DE3), purified (Ni-NTA, SEC; monomer fraction)
- Kd [2]: 0.52 ± 0.02 µM

B3: Mint3NT, N-terminal fragment (1–214) of Mint3 (domain or fragment, human, UniProt O96018 1-214, looked up)
chain: B2 chain
notes: Mint3 (X11γ/APBA3), human, N-terminal fragment, residues 1-214; Uniformly 15N-labelled (M9 medium) for the NMR titration; No cleavage site is told for the C-terminal His6 tag; also called Mint3(1–214); 15N-Mint3NT; source: E. coli BL21 (DE3), purified (Ni-NTA, SEC; monomer fraction collected)
- binding result (FIH-1 N171A): binds
- binding result (FIH-1 E250A): binds
- binding result (FIH-1 D248A): binds
- binding result (FIH-1 E29A): binds
- dH [1]: -32.2 ± 0.7 kcal/mol
- stoichiometry N [1]: 0.48 ± 0.02
- binding result (FIH-1 E79A): binds
- binding result (FIH-1 Y71A): binds
- binding result (FIH-1 K75A): binds

B4: Mint3NTmut, Mint3NT (1–214) with the mutations … → AAASAAAGRD (domain or fragment, human, UniProt O96018 1-214, looked up)
chain: B2 chain with G101A, L102A, L103A, E106A
notes: source: E. coli BL21 (DE3), purified (mutants/fragments prepared as Mint3NT)
- Kd [1]: 1310 nM
- dH [1]: -13.9 kcal/mol
- stoichiometry N [1]: ~0.5

B5: Mint3 fragment (1-92) (domain or fragment, human, UniProt O96018 1-92, looked up)
chain: MDFPTISRSPSGPPAMDLEGPRDILVPSEDLTPDSQWDPMPGGPGSLSRMELDESSLQELVQQFEALPGDLVGPSPGGAPCPLHIATGHGLA
notes: human Mint3 (X11gamma/APBA3), residues 1-92; source: E. coli BL21 (DE3), purified (mutants/fragments of Mint3 prepared as Mint3NT)
- Kd [2]: 9 ± 0.9 µM

B6: Mint3 fragment (1–92) (domain or fragment, human, UniProt O96018 1-92, looked up)
chain: B5 chain
notes: as for B4
- stoichiometry N [1]: ~0.5

B7: Mint3(1–117), N-terminal half of Mint3NT (domain or fragment, human, UniProt O96018 1-117, looked up)
chain: MDFPTISRSPSGPPAMDLEGPRDILVPSEDLTPDSQWDPMPGGPGSLSRMELDESSLQELVQQFEALPGDLVGPSPGGAPCPLHIATGHGLASQEIADAHGLLSAEAGRDDLLGLLH
notes: as for B4
- Kd [1]: 650 ± 70 nM
- dH relative to Mint3NT [1]: ~0.5
- stoichiometry N [1]: ~0.5
